Patent publication US20200247894A1 (Regeneron, published 2020)

T1: mouse IL-2Rγ endogenously expressed on MC/9 cells (mouse, UniProt P34902 23-369)
T1 construct: whole, on cells
T1 sequence (looked up): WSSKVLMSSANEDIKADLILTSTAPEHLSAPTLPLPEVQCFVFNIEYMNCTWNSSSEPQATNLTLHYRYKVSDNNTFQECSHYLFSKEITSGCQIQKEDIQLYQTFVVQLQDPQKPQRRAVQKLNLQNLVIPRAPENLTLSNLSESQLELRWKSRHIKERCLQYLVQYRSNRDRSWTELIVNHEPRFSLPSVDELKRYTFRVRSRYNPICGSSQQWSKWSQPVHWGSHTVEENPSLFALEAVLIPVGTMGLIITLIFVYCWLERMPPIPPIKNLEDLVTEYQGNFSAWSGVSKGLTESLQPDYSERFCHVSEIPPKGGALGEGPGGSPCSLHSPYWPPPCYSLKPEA

T2: human IL-2Rγ endogenously expressed on NK-92 and Jurkat cells (human, UniProt P31785 23-369)
T2 construct: whole, on cells; on cells it stands with the other receptor subunits of the cell line; also called IL-2Rg; CD132
T2 sequence (looked up): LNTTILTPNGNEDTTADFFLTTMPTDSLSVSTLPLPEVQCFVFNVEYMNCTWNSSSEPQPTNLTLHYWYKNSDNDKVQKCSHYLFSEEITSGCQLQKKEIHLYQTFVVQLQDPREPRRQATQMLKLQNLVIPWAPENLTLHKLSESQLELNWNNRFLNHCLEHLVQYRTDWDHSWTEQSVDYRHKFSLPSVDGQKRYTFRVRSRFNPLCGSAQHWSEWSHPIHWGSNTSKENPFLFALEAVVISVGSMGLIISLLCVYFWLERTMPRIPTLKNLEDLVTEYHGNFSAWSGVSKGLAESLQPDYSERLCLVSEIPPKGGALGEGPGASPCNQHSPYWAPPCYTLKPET

T3: Rat IL2Rγ extracellular domain expressed with a C-terminal myc-myc-hexahistidine tag (rat)
T3 construct: whole entry is the tagged construct; also called rIL-2Rg-MMH; rat IL-2Rg-MMH
T3 chain: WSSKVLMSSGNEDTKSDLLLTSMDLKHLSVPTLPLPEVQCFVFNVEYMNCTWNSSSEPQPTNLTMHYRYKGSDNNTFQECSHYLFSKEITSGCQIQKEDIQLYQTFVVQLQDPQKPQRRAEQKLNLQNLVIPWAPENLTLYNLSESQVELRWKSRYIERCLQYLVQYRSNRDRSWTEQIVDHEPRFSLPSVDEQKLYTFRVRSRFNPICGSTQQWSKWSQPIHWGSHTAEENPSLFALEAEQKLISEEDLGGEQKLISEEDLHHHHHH

T4: Human IL2Rγ extracellular domain expressed with a C-terminal mouse IgG2a Fc tag (human)
T4 construct: whole entry is the Fc-fused construct; also called hIL-2Rg-mFc
T4 chain: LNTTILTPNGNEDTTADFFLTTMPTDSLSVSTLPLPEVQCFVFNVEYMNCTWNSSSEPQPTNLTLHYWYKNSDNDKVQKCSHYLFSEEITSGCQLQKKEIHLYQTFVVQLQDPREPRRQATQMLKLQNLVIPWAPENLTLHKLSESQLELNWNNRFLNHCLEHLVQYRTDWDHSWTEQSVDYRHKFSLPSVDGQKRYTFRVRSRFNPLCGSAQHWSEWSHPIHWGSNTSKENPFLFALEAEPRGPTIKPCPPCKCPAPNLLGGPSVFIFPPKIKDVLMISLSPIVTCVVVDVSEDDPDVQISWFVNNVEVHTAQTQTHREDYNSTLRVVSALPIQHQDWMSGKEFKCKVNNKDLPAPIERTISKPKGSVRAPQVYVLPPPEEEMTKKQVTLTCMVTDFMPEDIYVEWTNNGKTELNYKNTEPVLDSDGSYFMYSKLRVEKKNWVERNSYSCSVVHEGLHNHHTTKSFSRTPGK

T5: Mouse IL2Rγ extracellular domain expressed with a C-terminal myc-myc-hexahistidine tag (mouse)
T5 construct: whole entry is the tagged construct; also called mIL-2Rg-MMH
T5 chain: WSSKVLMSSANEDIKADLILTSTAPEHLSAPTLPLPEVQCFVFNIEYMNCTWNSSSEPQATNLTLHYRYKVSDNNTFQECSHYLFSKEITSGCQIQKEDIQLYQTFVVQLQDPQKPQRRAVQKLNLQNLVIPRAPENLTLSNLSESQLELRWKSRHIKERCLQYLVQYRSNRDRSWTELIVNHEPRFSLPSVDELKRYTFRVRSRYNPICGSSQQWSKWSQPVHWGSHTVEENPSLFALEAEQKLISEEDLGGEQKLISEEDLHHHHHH

T6: Macaca fascicularis IL2Rγ extracellular domain expressed with a C-terminal myc-myc-hexahistidine tag (Macaca fascicularis)
T6 construct: whole entry is the tagged construct; also called mfIL-2Rg-MMH
T6 chain: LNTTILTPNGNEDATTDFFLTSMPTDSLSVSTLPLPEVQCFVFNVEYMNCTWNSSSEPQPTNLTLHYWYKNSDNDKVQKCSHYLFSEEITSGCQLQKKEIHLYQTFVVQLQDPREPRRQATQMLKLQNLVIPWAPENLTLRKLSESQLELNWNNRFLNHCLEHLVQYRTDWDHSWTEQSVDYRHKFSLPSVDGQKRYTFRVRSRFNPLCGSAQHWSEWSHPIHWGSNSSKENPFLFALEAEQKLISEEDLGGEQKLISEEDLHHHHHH


How the values were obtained:
[1] = target: T1, mouse IL-2Rγ endogenously expressed on …; experiment: flow cytometry, 10 ug/ml antibody, MC/9 cells (endogenous mouse IL-2Rg)
Experimental: (§1) For flow cytometry analyses, the cells were pre-incubated with mouse IgG at 100 μg/ml for 15 minutes at room temperature (RT) to block the binding of the antibodies to Fc receptors. […] Cells were washed, fixed using BD CytoFix™ (BD biosciences, #554655) and analyzed on an IQue® (Intellicyt®) Flow Cytometer or Accuri Flow cytometer (BD). […] The results were analyzed using ForeCyt® (IntelliCyt®) software to determine the geometric means of fluorescence (MFI) for viable cells. Binding ratios were calculated by normalizing the MFI of the test sample by the MFI of the unstained sample.

[2] = target: T2, human IL-2Rγ endogenously expressed on …; experiment: flow cytometry, 10 ug/ml antibody, NK-92 cells (endogenous human IL-2Rg)
Experimental: as §1

[3] = target: T2, human IL-2Rγ endogenously expressed on …; experiment: flow cytometry, 10 ug/ml antibody, Jurkat cells (endogenous human IL-2Rg)
Experimental: as §1

[4] = target: T3, Rat IL2Rγ extracellular domain …; experiment: SPR Biacore 4000, anti-hFc-captured mAb, 25 C
How it was run: (§2)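 KD and dissociative half-life come from rate constants obtained by 1:1 binding-model fits of real-time sensorgrams. Antibodies sit on an anti-human Fc capture surface, with HBS-ET (pH 7.4) as running buffer and an 8-10 minute dissociation phase.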

[5] = target: T4, Human IL2Rγ extracellular domain …; experiment: SPR Biacore 4000, anti-hFc-captured mAb, 25 C
How it was run: as §2

[6] = target: T5, Mouse IL2Rγ extracellular domain …; experiment: SPR Biacore 4000, anti-hFc-captured mAb, 25 C
How it was run: as §2

[7] = target: T3, Rat IL2Rγ extracellular domain …; experiment: SPR Biacore 4000, anti-hFc-captured mAb, 37 C
How it was run: as §2

[8] = target: T4, Human IL2Rγ extracellular domain …; experiment: SPR Biacore 4000, anti-hFc-captured mAb, 37 C
How it was run: as §2

[9] = target: T6, Macaca fascicularis IL2Rγ extracellular …; experiment: SPR Biacore 4000, anti-hFc-captured mAb, 37 C
How it was run: as §2

[10] = target: T5, Mouse IL2Rγ extracellular domain …; experiment: SPR Biacore 4000, anti-hFc-captured mAb, 37 C
How it was run: as §2

Row | Binder | 100 nM Ag Bound [4] | binding result [4] | 50 nM Ag Bound [5] | Kd [5] | koff [5] | kon [5] | t1/2 [5] | 100 nM Ag Bound [6] | binding result [6] | 100 nM Ag Bound [7] | 50 nM Ag Bound [8] | Kd [8] | koff [8] | kon [8] | t1/2 [8] | 100 nM Ag Bound [9] | Kd [9] | koff [9] | kon [9] | t1/2 [9] | other results
1 | H4H12859P (antibody, human IgG4 S228P, kappa, V domains shown, fully human anti-IL2Rg antibody, human IgG4) VH: QVQLVQSGAEVKKPGASVRVSCKASGYTFTDYDIHWVRQAPGHGLEWMGWINPNSGGTNYAQKFQGRVTMTRDTSISTVYMDLSRLRSDDTAVYYCARADYSSSYYYYGMDVWGQGTTVTVSS VL: not shown |  |  |  |  |  |  |  |  |  |  |  |  |  |  |  |  |  |  |  |  | Binding Ratio (Sample over unstained MFIs) [1]: 1; Raw MFI [1]: 201 MFI; Binding Ratio (Sample over unstained MFIs) [2]: 1; Raw MFI [2]: 176 MFI; Binding Ratio (Sample over unstained MFIs) [3]: 1; Raw MFI [3]: 89 MFI
2 | H4H13538P (antibody, human IgG4 S228P, kappa, V domains shown, fully human anti-IL2Rgamma mAb, human IgG4 Fc) VH: EVQLVESGGGLVQPGGSLGLSCAASGFTFSNYAMSWVRQAPGKGLEWVSAVSGGGGGTYYADSVKGRFTISRDNSKNTVLLQMNSLRAEDTAVYYCARGRTGGLDYWGPGTLVTVSS VL: DVVMTQSPLSLPVIFGQPASISCRSSQSLVDSDGNTYLNWLQQRPGQSPRRLIYEVSNRDSGVPDRFSGSGSGTDFTLTISRVEAEDVGIYYCMQGTRWPPTFGGGTKVEIKR | 3 RU | no binding (tested: 100 nM) | 38 RU | 0.996 nM | 0.000116 s⁻¹ | 117000 M⁻¹ s⁻¹ | 99 min | 4 RU | no binding (tested: 100 nM) | 5 RU | 70 RU | 1.29 nM | 0.000187 s⁻¹ | 144000 M⁻¹ s⁻¹ | 62 min | 115 RU | 5.5 nM | 0.000932 s⁻¹ | 169000 M⁻¹ s⁻¹ | 12 min | 100 nM Ag Bound [10]: 5 RU
3 | H4H12858P (antibody, human IgG4 S228P, kappa, V domains shown, fully human anti-IL2Rg antibody, human IgG4; also called REGN9433) VH: EVQLVESGGDLVQPGGSLRLSCTASGFIFRNYAMNWVRQAPGKGLEWLSGILGSNDNTYYVDSVKGRFTISRDNSRNTLYLQMNSLRAEDSAVYYCAKGDAGGFDYWGQGTLVTVSS VL: DVVMTQSPLSLPVILGQPASISCRSSQSLVSSDGNTYLNWFQQRPGQSPRRLIYKVSNRDSGVPDRFSGSGSGTDFTLKISRVEAEDVGAYYCMQGSYWPPTFGQGTKLEIKR |  |  |  |  |  |  |  |  |  |  |  |  |  |  |  |  |  |  |  |  | Binding Ratio (Sample over unstained MFIs) [1]: 1; Raw MFI [1]: 199 MFI; Binding Ratio (Sample over unstained MFIs) [2]: 2; Raw MFI [2]: 228 MFI; Binding Ratio (Sample over unstained MFIs) [3]: 1; Raw MFI [3]: 99 MFI
4 | H4H13541P (antibody, human IgG4 S228P, kappa, V domains shown, fully human anti-IL2Rgamma mAb, human IgG4 Fc) VH: EVQLVESGGGVVRPGGSLRLSCAASGFIFDDYDMSWVRQPPGRGLEWVSGIDWFGGTRGYADSMKGRFTISRDNAKNSLYLQMNSLRVEDTAFYYCARGGAIVGAVTPFDYWGQGTLVTVSS VL: DIQMTQSPSSLSASVGNRVTLSCRASQSINTYLSWYQQRPGKAPKLLIYAASSLQSGVPSRFSGSGAGTDFTLTISSLQPEDFATYYCQQSYSAPLTFGGGTKVEIKR | 4 RU | no binding (tested: 100 nM) | 24 RU | 1.8 nM | 8.84e-05 s⁻¹ | 49200 M⁻¹ s⁻¹ | 131 min | 5 RU | no binding (tested: 100 nM) | 5 RU | 42 RU | 2.18 nM | 0.000122 s⁻¹ | 56000 M⁻¹ s⁻¹ | 94 min | 111 RU | 7.1 nM | 0.000755 s⁻¹ | 106000 M⁻¹ s⁻¹ | 15 min | 100 nM Ag Bound [10]: 4 RU

Now from value to binder, other results behind:

Row | 100 nM Ag Bound [4] | binding result [4] | 50 nM Ag Bound [5] | Kd [5] | koff [5] | kon [5] | t1/2 [5] | 100 nM Ag Bound [6] | binding result [6] | 100 nM Ag Bound [7] | 50 nM Ag Bound [8] | Kd [8] | koff [8] | kon [8] | t1/2 [8] | 100 nM Ag Bound [9] | Kd [9] | koff [9] | kon [9] | t1/2 [9] | Binder | other results
5 | 3 RU | no binding (tested: 100 nM) | 63 RU | 2.21 nM | 0.000246 s⁻¹ | 111000 M⁻¹ s⁻¹ | 47 min | 3 RU | no binding (tested: 100 nM) | 4 RU | 88 RU | 6.33 nM | 0.000801 s⁻¹ | 126000 M⁻¹ s⁻¹ | 14 min | 60 RU | 52.1 nM | 0.00612 s⁻¹ | 118000 M⁻¹ s⁻¹ | 1.9 min | H4H13544P2 (antibody, human IgG4 S228P, kappa, V domains shown, fully human anti-IL2Rgamma mAb, human IgG4 Fc) VH: QLQLQESGPGLVKPSETLSLTCTVSGGSISIKNYYWGWIRQPPGKGLEWIGSIYYSGTTYYNPSLKSRVTISVDTSKNQFSLKLSSVTAADTAVYHCARHGYSYGHGWFDPWGQGTLVTVSS VL: not shown | 100 nM Ag Bound [10]: 4 RU
6 | 4 RU | no binding (tested: 100 nM) | 64 RU | 12 nM | 0.00211 s⁻¹ | 175000 M⁻¹ s⁻¹ | 5 min | 4 RU | no binding (tested: 100 nM) | 3 RU | 59 RU | 30 nM | 0.00737 s⁻¹ | 246000 M⁻¹ s⁻¹ | 1.6 min | 21 RU | 88.6 nM | 0.0129 s⁻¹ | 146000 M⁻¹ s⁻¹ | 0.9 min | H4H13545P2 (antibody, human IgG4 S228P, kappa, V domains shown, fully human anti-IL2Rgamma mAb, human IgG4 Fc) VH: QVQLQQSGPGLVKPSQTLSLTCDISGDSVSSNIATWNWIRQSPSRGLEWLGRTYYRSKWYKDYAVSVKSRITINPDTSKNQFSLQVNSVTPEDTAVYYCARMTGPRYYFEYWGQGTLVTVSS VL: not shown | 100 nM Ag Bound [10]: 2 RU
